Experiment in all cases: SPR, KD relative to WT C2;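 also: biacore SPR at 37 °C, anti-C2 mAbs captured on anti-human IgG chips with alanine or serine point mutants of C2 as analyte, KD from 1:1 fit compared with wild-type C2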
The target of one experiment is T1, human C2 T317A (human, UniProt P06681 21-752).
T1 sequence: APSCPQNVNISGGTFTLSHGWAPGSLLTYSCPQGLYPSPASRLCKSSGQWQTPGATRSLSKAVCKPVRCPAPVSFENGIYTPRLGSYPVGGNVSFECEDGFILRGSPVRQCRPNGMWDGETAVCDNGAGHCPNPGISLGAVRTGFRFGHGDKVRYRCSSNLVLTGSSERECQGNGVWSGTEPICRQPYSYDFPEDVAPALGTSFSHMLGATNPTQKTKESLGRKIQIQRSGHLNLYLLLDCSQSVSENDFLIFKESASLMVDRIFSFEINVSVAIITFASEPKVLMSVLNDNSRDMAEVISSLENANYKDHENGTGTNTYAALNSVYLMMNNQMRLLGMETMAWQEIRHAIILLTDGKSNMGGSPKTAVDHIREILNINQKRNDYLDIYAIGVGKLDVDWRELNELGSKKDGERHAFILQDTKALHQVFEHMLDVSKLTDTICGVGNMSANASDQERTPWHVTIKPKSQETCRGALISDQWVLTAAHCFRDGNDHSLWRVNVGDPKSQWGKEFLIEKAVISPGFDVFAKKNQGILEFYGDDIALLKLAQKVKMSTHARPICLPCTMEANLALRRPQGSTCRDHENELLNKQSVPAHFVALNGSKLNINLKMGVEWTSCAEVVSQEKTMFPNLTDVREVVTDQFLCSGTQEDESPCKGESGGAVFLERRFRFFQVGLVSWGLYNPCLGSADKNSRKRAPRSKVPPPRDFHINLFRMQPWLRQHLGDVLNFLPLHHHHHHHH

In a further experiment the target is T2, human C2 I320A (human, UniProt P06681 21-752).
T2 sequence: T1 sequence with A297T, I300A

In another experiment the target is T3, human C2 K244A (human, UniProt P06681 21-752).
T3 sequence: T1 sequence with K224A, A297T

In the next experiment the target is T4, human C2 E267A (human, UniProt P06681 21-752).
T4 sequence: T1 sequence with E247A, A297T

Positions count from the first letter of the chain named.

B1: RF16-242 (antibody, human IgG4 S228P, lambda, V domains shown)
VH: EVQLLQSGAEVKKPGESLKISCKGSGYSFTSYWIGWVRQMPGKGLEWMGIIYPGDSDTRYSPSFQGQVTISADKSISTAYLQWSSLKASDTAMYYCARRGHYGDYFDYWGQGTLVTVSS
VL: SYELTQPPSVSVSPGQTARITCSGDALPKKYAYWYHQKSGQAPVLVIYEDRRRPSEIPERFSGSSSGTMATLTITGAQVEDEGVYFCYSRDRAGNQRVFGGGTQLTVLG
notes: pH-dependent anti-C2 antibody from a phage display library
In the case of B1, the Fold diff was 1 fold in the experiment with human C2 T317A, 10 fold with human C2 I320A, 4 fold with human C2 K244A and 2 fold with human C2 E267A.
